Reference: the supplement of paper PMC6757056
± gives the standard deviation of the averaged measurements.

B1: library; a variant is named by its letters at N, in order (parent)
chain: GCUGUCACCGAGAAACUGUGAAGUAUAUCUUAAACCUGGGCACUUAAAAGAUAUAUGGAGUUAGUAGUGCAACCUGCUCGGUCUGAUGAGUCCNNNNNNGGACGAAACAGC

How the values were obtained:
cyclic di-GMP [1] = variants of: B1; assay: normalized RNA/DNA level without ligand (relative to sTRSVctl = 100) (log10 (% of sTRSVctl)); HEK293T; ligand: cyclic di-GMP (c-di-GMP-II aptamer); higher = less ribozyme self-cleavage, higher mRNA level; settings: reporter: mCherry (pCS4076), ligand present: no
In short: (§1)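 Ribozyme switch library plasmids linked to reporters were introduced into HEK293T cells at 4 µg per 6-well well, with ligand, if any, added 1 h before. Total RNA was extracted with EDTA 72 h later, reverse-transcribed, amplified, barcoded and sequenced. RNA level was computed from RNA over DNA reads relative to a spiked-in non-cleaving sequence or the top sequences, then scaled and log-transformed. The top set was 25 sequences, values were ×100 and log10, and the cutoff was ≥100 DNA reads.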

cyclic di-GMP [2] = variants of: B1; assay: normalized RNA/DNA level with ligand (relative to sTRSVctl = 100) (log10 (% of sTRSVctl)); HEK293T; ligand: cyclic di-GMP (c-di-GMP-II aptamer); ligand concentration (+) RNA-Seq: 1 mM; higher = less ribozyme self-cleavage, higher mRNA level; settings: reporter: mCherry (pCS4076), ligand present: yes
In short: as §1

Variant	normalized RNA/DNA level without ligand (log10) (cyclic di-GMP [1])	normalized RNA/DNA level with ligand (log10) (cyclic di-GMP [2])
CCCGGG	1.7187 ± 0.00061	1.91 ± 0.14
CCCGGA	1.48 ± 0.075	1.72 ± 0.13
CCCGGC	1.75 ± 0.031	1.88 ± 0.07
UCCCUC	1.78 ± 0.038	1.89 ± 0.14
UCCCUU	1.69 ± 0.056	1.86 ± 0.14
UCCCUA	1.696 ± 0.014	1.84 ± 0.092
UCCCCG	1.82 ± 0.03	1.96 ± 0.11
UCCCCA	1.79 ± 0.034	1.91 ± 0.2
UCCCCU	1.78 ± 0.033	1.9 ± 0.13
UCCCCC	1.83 ± 0.088	1.92 ± 0.13
ACCGGA	1.51 ± 0.13	1.71 ± 0.056
ACCGGU	1.531 ± 0.003	1.76 ± 0.08
ACCGGG	1.84 ± 0.027	1.91 ± 0.12
ACCGGC	1.784 ± 0.0037	1.92 ± 0.12
GCCCGU	1.73 ± 0.048	1.84 ± 0.14
GCCCGC	1.76 ± 0.04	1.86 ± 0.15
GCCCGA	1.62 ± 0.052	1.79 ± 0.079
UCAUGC	1.71 ± 0.081	1.89 ± 0.045
UCAUGG	1.77 ± 0.019	1.9 ± 0.08
UCAUGA	1.57 ± 0.026	1.75 ± 0.12
UCCGAA	1.48 ± 0.015	1.69 ± 0.17
UCCGAC	1.65 ± 0.062	1.79 ± 0.1
UCCGAU	1.59 ± 0.041	1.79 ± 0.08
UCCGAG	1.64 ± 0.082	1.79 ± 0.11

Variant	normalized RNA/DNA level without ligand (log10) (cyclic di-GMP [1])	normalized RNA/DNA level with ligand (log10) (cyclic di-GMP [2])
UCCAGG	1.81 ± 0.046	1.9 ± 0.14
UCCAGU	1.63 ± 0.021	1.84 ± 0.11
GCCUCA	1.737 ± 0.0028	1.87 ± 0.068
GCCUCC	1.71 ± 0.02	1.84 ± 0.091
GCCUCG	1.761 ± 0.0043	1.892 ± 0.0091
GCCUCU	1.721 ± 0.017	1.87 ± 0.04
CCCCCC	1.82 ± 0.043	1.93 ± 0.12
CCCCCU	1.704 ± 0.0062	1.86 ± 0.13
CCCCCG	1.79 ± 0.027	1.84 ± 0.071
ACCGUG	1.57 ± 0.096	1.77 ± 0.097
ACCGUC	1.73 ± 0.028	1.83 ± 0.11
ACCGUU	1.52 ± 0.028	1.72 ± 0.1
ACCGUA	1.51 ± 0.034	1.68 ± 0.13
GCCGAG	1.65 ± 0.031	1.72 ± 0.091
CCCUAU	1.62 ± 0.048	1.8 ± 0.069
CCCUAC	1.71 ± 0.026	1.82 ± 0.1
CCCUAA	1.45 ± 0.081	1.64 ± 0.13
GCCUGU	1.69 ± 0.043	1.88 ± 0.12
GCCUGA	1.6 ± 0.036	1.77 ± 0.069
GCCUGG	1.78 ± 0.061	1.91 ± 0.09
GCCUGC	1.78 ± 0.032	1.86 ± 0.097
UCCACG	1.77 ± 0.057	1.87 ± 0.11
UCCACA	1.74 ± 0.035	1.87 ± 0.12
UCCACC	1.635 ± 0.0036	1.8 ± 0.12

Variant	normalized RNA/DNA level without ligand (log10) (cyclic di-GMP [1])	normalized RNA/DNA level with ligand (log10) (cyclic di-GMP [2])
UCCACU	1.695 ± 0.011	1.85 ± 0.12
ACCAGG	1.71 ± 0.037	1.77 ± 0.088
ACCAGA	1.39 ± 0.11	1.6 ± 0.13
ACCAGC	1.63 ± 0.064	1.77 ± 0.079
ACAUCG	1.51 ± 0.1	1.71 ± 0.16
ACAUCA	1.683 ± 0.013	1.79 ± 0.063
ACAUCU	1.6 ± 0.07	1.76 ± 0.092
ACAUCC	1.68 ± 0.047	1.83 ± 0.14
UCAUAU	1.54 ± 0.037	1.72 ± 0.13
GCAUGG	1.46 ± 0.15	1.67 ± 0.064
GCAUGA	1.38 ± 0.1	1.54 ± 0.086
GCAUGC	1.68 ± 0.026	1.81 ± 0.097
ACCUCA	1.62 ± 0.027	1.77 ± 0.12
ACCUCU	1.716 ± 0.0081	1.87 ± 0.1
ACCUCG	1.73 ± 0.056	1.83 ± 0.15
UCCUUC	1.71 ± 0.027	1.87 ± 0.11
UCCUUA	1.65 ± 0.025	1.83 ± 0.15
ACCAUC	1.68 ± 0.04	1.81 ± 0.13
ACCAUG	1.61 ± 0.099	1.74 ± 0.057
ACCAUU	1.56 ± 0.032	1.79 ± 0.1
CCAUCG	1.73 ± 0.088	1.84 ± 0.1
CCAUCC	1.81 ± 0.043	1.92 ± 0.092
CCAUCA	1.66 ± 0.052	1.77 ± 0.12
CCAUCU	1.62 ± 0.074	1.76 ± 0.16

Variant	normalized RNA/DNA level without ligand (log10) (cyclic di-GMP [1])	normalized RNA/DNA level with ligand (log10) (cyclic di-GMP [2])
ACAUGC	1.59 ± 0.049	1.77 ± 0.053
ACAUGU	1.541 ± 0.01	1.69 ± 0.091
ACAUGA	1.3 ± 0.07	1.53 ± 0.13
CCCAGU	1.736 ± 0.015	1.86 ± 0.068
CCCAGC	1.72 ± 0.03	1.84 ± 0.16
CCCAGG	1.77 ± 0.025	1.89 ± 0.077
ACCCUU	1.66 ± 0.046	1.78 ± 0.12
ACCCUA	1.624 ± 0.011	1.78 ± 0.072
CCCAAU	1.55 ± 0.066	1.77 ± 0.11
CCCAAG	1.587 ± 0.0023	1.74 ± 0.17
CCCAAC	1.61 ± 0.037	1.82 ± 0.086
ACCCAG	1.777 ± 0.0092	1.86 ± 0.06
ACCCAU	1.61 ± 0.018	1.79 ± 0.12
ACCCAA	1.56 ± 0.03	1.74 ± 0.15
GCCGCC	1.72 ± 0.033	1.82 ± 0.075
GCCGCA	1.74 ± 0.0018	1.84 ± 0.14
GCCGCG	1.79 ± 0.03	1.92 ± 0.07
CCCUUG	1.643 ± 0.0095	1.81 ± 0.13
CCCUUA	1.47 ± 0.04	1.7 ± 0.15
CCCUUC	1.729 ± 0.0068	1.86 ± 0.082
UCAUUG	1.617 ± 0.0034	1.82 ± 0.082
UCAUUC	1.69 ± 0.051	1.85 ± 0.084
ACCGCU	1.7 ± 0.028	1.86 ± 0.12
ACCGCG	1.72 ± 0.075	1.87 ± 0.099

Variant	normalized RNA/DNA level without ligand (log10) (cyclic di-GMP [1])	normalized RNA/DNA level with ligand (log10) (cyclic di-GMP [2])
ACCGCA	1.667 ± 0.015	1.8 ± 0.11
ACCGCC	1.74 ± 0.057	1.89 ± 0.095
ACCUUC	1.74 ± 0.042	1.83 ± 0.11
ACCUUA	1.67 ± 0.015	1.79 ± 0.14
UCCAUG	1.67 ± 0.021	1.85 ± 0.15
UCCAUA	1.53 ± 0.033	1.74 ± 0.13
UCCAUC	1.7 ± 0.0059	1.8 ± 0.13
UCCAUU	1.63 ± 0.023	1.81 ± 0.14
GCCUUG	1.576 ± 0.007	1.81 ± 0.1
GCCUUA	1.657 ± 0.0086	1.82 ± 0.1
GCCUUC	1.61 ± 0.038	1.79 ± 0.099
UCCCAU	1.71 ± 0.02	1.85 ± 0.16
UCCCAC	1.758 ± 0.0044	1.87 ± 0.097
UCCCAA	1.6799 ± 0.00075	1.84 ± 0.077
UCCCAG	1.79 ± 0.048	1.9 ± 0.089
GCCGUA	1.57 ± 0.099	1.74 ± 0.068
GCCGUC	1.54 ± 0.05	1.72 ± 0.12
GCCGUU	1.596 ± 0.013	1.77 ± 0.11
ACCUAC	1.7 ± 0.02	1.85 ± 0.075
ACCUAG	1.64 ± 0.053	1.78 ± 0.086
